The values that follow come from patent US20180209983A1 (SUBDOMAIN, published 2018).

Experiment [1] deals with T1, purified recombinant DR5-Fc protein (UniProt O14763-2 56-182, limits assumed).
T1 construct: also called TRAIL-R2; not shown: Fc portion
The experiment is described as follows: phage ELISA; signal on target-Fc over non-specific control (e.g. IgG1-Fc); average where several clones. On the procedure:
(§1) Selections were also performed using F1, F2, F3, C1 & C2 trinucleotide phosphoramidite libraries. In most cases, libraries were pooled prior to use in selection. By combining equal volumes of the individual libraries, Pool F (libraries F1, F2 and F3) and Pool C (libraries C1 and C2) were generated. These libraries were used in selections for DBDpp binders to 4-1BB/CD137 as well as a larger panel of purified recombinant “target”-Fc proteins, including CD47, CTLA4, DR5, KIR, LAG3, OX40, PD1, PD-L1 and TIM3. (Many of these targets are considered immuno-regulatory factors (Pardoll et al., Nat. Rev. Cancer 12:252-264 (2012)). After incubation of the target with the pools of DBDpp phage libraries, bound phage-target complexes were captured and separated from unbound phage with protein A beads (target proteins were Fc fusions). After three rounds of selection, rescued phage clones were screened by ELISA for binding to the selected target.
(§2) For each target, approximately 90 DBDpp phage clones were screened by ELISA for binding to the target protein and as well as a non-specific control (e.g., IgG1-Fc). […] In some instances, for the ELISA screening plate in which the majority of DBDpp clones were positive, the entire plate was sequenced.

Experiment [2] has as its target purified recombinant KIR-Fc protein. The experiment is described as above.
For experiment [3] the target is unchanged. The experiment in a line: phage ELISA; signal on target-Fc over non-specific control (e.g. IgG1-Fc).
The target in experiment [4] is T2, recombinant, biotinylated, Human 4-1BB/TNFRSF9/CD137-Fc (human, UniProt Q07011 24-186, biotinylated (site not stated)).
T2 construct: Selection and screening target of the phage ELISA; also called 4-1BB/CD137; not shown: Fc portion
The experiment is described as follows: phage ELISA of rescued clones on human CD137-Fc. From the text:
The F2NNK DBD library was used in five rounds of selection against recombinant, biotinylated, Human 4-1BB/TNFRSF9/CD137-Fc.
(An ELISA detects its analyte on a solid surface through an enzyme-linked reagent.)

For experiment [5], the target named is T3, purified recombinant TIM3-Fc protein (UniProt Q8TDQ0 22-202, limits assumed).
T3 construct: not shown: Fc portion
The experiment is described as follows: phage ELISA; signal on target-Fc over non-specific control (e.g. IgG1-Fc); average where several clones. As to the method: as §1, §2

In experiment [6] the target is T4, purified recombinant PD1-Fc protein (UniProt Q15116 25-167, limits assumed).
T4 construct: not shown: Fc portion
The experiment is described as above. As to the method: as §1, §2

For experiment [7], the target named is T5, purified recombinant PD-L1-Fc protein (UniProt Q9NZQ7 19-238).
T5 construct: also called B7-H1; not shown: Fc portion
The experiment is described as above. As to the method: as §1, §2

Experiment [8] has as its target T5, purified recombinant PD-L1-Fc protein. The experiment in a line: phage ELISA; signal on target-Fc over non-specific control (e.g. IgG1-Fc). As to the method: as §1, §2

T4 sequence (Q15116 25-167 limits assumed): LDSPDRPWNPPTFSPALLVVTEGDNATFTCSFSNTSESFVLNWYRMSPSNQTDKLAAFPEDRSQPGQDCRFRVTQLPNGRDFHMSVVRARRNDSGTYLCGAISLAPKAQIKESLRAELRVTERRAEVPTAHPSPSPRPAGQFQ
T1 sequence (O14763 56-182 limits assumed): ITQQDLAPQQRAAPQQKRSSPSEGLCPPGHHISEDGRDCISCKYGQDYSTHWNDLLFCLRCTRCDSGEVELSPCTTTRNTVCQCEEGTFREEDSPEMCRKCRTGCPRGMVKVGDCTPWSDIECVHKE
T5 sequence (Q9NZQ7 19-238 limits assumed): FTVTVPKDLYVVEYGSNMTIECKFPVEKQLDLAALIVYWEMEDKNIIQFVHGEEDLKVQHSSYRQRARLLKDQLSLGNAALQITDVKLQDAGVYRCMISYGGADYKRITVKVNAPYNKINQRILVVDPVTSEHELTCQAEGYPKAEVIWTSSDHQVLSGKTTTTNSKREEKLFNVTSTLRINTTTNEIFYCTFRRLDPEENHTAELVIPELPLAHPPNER
T2 sequence (Q07011 24-186 limits assumed): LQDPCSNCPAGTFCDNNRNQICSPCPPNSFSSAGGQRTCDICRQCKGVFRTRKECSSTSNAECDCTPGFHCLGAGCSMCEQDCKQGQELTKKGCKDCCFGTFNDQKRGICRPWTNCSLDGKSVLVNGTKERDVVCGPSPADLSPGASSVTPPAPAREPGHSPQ

B1: DBDpp of SEQ ID NO: 29, phage-displayed (designed binder)
chain: MGSWFYFKQHLAWIKSYLEALGGSEAELAHFERAIAAFEQHLQMYKGKGNPEVEALRKEAAAIRDELQAYRHN
notes: F1 library; rescued M13 phage clone, DBDpp fused to pIII
On to B1, for which, in experiment [1], the ELISA ratio came out at 11.8.

B2: DBDpp of SEQ ID NO: 35, phage-displayed (designed binder)
chain: MGSWSEFYNRLDAIESRLLALGGSEAELALFEIQIARFEKVLQAYKGKGNPEVEALRGEARAIFAELYAYRHN
In the case of B2, the ELISA ratio in experiment [2] is 8.4.

B3: DBDpp of SEQ ID NO: 37, phage-displayed (designed binder)
chain: MGSWLWFKIFLAEIKYFLEALGGSEAELAAFDFEIHAFHVELFAYKGKGNPEVEVLREVAAEIRWDLQAYRHN
On to B3, for which the ELISA ratio in experiment [3] worked out at 4.17.

B4: DBDpp of SEQ ID NO: 36, phage-displayed (designed binder)
chain: MGSWYEFYNRLYAIEIRLYALGGSEAELAAFEKEIAAFESELQAYKGKGNPEVERLRVRAAKIRVILQAYRHN
As for B4, the ELISA ratio in experiment [2] stood at 4.24.

B5: bb10 (DBDpp clone from the F2NNK library), phage-displayed (designed binder)
chain: MGSWAEFKQRLAAIKTRLEALGGSEAELAAFLGEIWAFEMELAAYKGKGNPEVEALGREAAAIRMELQAYRHN
notes: Tested as rescued M13 phage; In the F2NNK library the DBDpp carries an N-terminal FLAG tag and is fused at its C-terminus to M13 pIII (pComb phagemid); also called the 89 clones
Regarding B5, in experiment [4], the “fold of ELISA OD over control (IgG Fc)” value came to 5.3 fold.

B6: DBDpp of SEQ ID NO: 45, phage-displayed (designed binder)
chain: MGSWVVFKVDLATIKYILEALGGSEAELAEFEGEIAGFEYSLQFYKGKGNPEVEALRKEAAAIRDELQAYRHN
notes: F1 library
Consider B6, for which the ELISA ratio in experiment [5] was determined as 5.79.

B7: DBDpp of SEQ ID NO: 48, phage-displayed (designed binder)
chain: MGSWYAFKDYLADIKGWLEALGGSEAELAFFEIFIARFELELQAYKGKGNPEVEALRKEAAAIRDELQAYRHN
notes: as for B1
Turning to B7, the ELISA ratio in experiment [6] amounted to 3.29.

B8: DBDpp of SEQ ID NO: 30, phage-displayed (designed binder)
chain: MGSWHYFKDHLAEIKGLLEALGGSEAELAHFEMAIADFEHNLQYYKGKGNPEVEALRKEAAAIRDELQAYRHN
notes: as for B1
B8: the ELISA ratio in experiment [1] stood at 11.4.

B9: DBDpp of SEQ ID NO: 32, phage-displayed (designed binder)
chain: MGSWIYFKEHLAYIKKELEALGGSEAELAHFESAIAVFESTLQYYKGKGNPEVEALRKEAAAIRDELQAYRHN
notes: as for B1
B9: the ELISA ratio in experiment [1] was determined as 10.7.

B10: DBDpp of SEQ ID NO: 31, phage-displayed (designed binder)
chain: MGSWHYFKGHLAEIKNHLEALGGSEAELAHFERAIAAFERSLQWYKGKGNPEVEALRKEAAAIRDELQAYRHN
notes: as for B1
On to B10, for which the ELISA ratio in experiment [1] worked out at 10.8.

B11: DBDpp of SEQ ID NO: 34, phage-displayed (designed binder)
chain: MGSWWLFKDHLAEIKTALEALGGSEAELAHFEMAIAAFEKQLQYYKGKGNPEVEALRKEAAAIRDELQAYRHN
notes: as for B1
Regarding B11, in experiment [1], the ELISA ratio turned out to be 9.75.

B12: DBDpp of SEQ ID NO: 33, phage-displayed (designed binder)
chain: MGSWTYFKEHLAEIKYMLEALGGSEAELAHFEVAIADFEKMLQYYKGKGNPEVEALRKEAAAIRDELQAYRHN
notes: as for B1
With B12, the ELISA ratio in experiment [1] is 10.3.

B13: DBDpp of SEQ ID NO: 47, phage-displayed (designed binder)
chain: MGSWVMFKWLLADIKSHLEALGGSEAELAFFEGFIAAFETHLQVYKGKGNPEVEALRKEAAAIRDELQAYRHN
notes: as for B1
B13: the ELISA ratio in experiment [6] stood at 8.13.

B14: DBDpp of SEQ ID NO: 46, phage-displayed (designed binder)
chain: MGSWTIFKEWLAFIKTDLEALGGSEAELAFFEGWIASFEMELQKYKGKGNPEVEALRKEAAAIRDELQAYRHN
notes: as for B1
For B14, the ELISA ratio in experiment [6] was 17.1.

B15: DBDpp of SEQ ID NO: 40, phage-displayed (designed binder)
chain: MGSWYEFQNRLHAIHERLNALGGSEAELAAFEKEIAAFESELQAYKGKGNPEVELLRDDAAFIRHFLQAYRHN
notes: F3 library; rescued M13 phage clone, DBDpp fused to pIII
As to B15, in experiment [7], the ELISA ratio turned out to be 6.34.

B16: DBDpp of SEQ ID NO: 44, phage-displayed (designed binder)
chain: MGSWFEFENRLHAIVHRLGALGGSEAELAAFEKEIAAFESELQAYKGKGNPEVETLRADAAFIRHYLQAYRHN
notes: as for B15
For the molecule B16, the ELISA ratio in experiment [7] came to 2.76.

B17: DBDpp of SEQ ID NO: 41, phage-displayed (designed binder)
chain: MGSWFEFQDRLTAINERLSALGGSEAELAAFEKEIAAFESELQAYKGKGNPEVETLRSDAAFIRRFLQAYRHN
notes: as for B15
As to B17, the ELISA ratio in experiment [7] came out at 6.01.

B18: DBDpp of SEQ ID NO: 60, phage-displayed (designed binder)
chain: MGSWYEFTVRLEAIHERLKALGGSEAELAAFEKEIAAFESELQAYKGKGNPEVEILRDDAAFIRRFLQAYRHN
notes: as for B15
Take B18: the ELISA ratio in experiment [8] was found to be 17.3.

B19: DBDpp of SEQ ID NO: 61, phage-displayed (designed binder)
chain: MGSWYEFDDRLNAIHDRLQALGGSEAELAAFEKEIAAFESELQAYKGKGNPEVEDLRDDAAFIRRFLQAYRHN
notes: as for B15
In the case of B19, the ELISA ratio in experiment [8] worked out at 12.2.

B20: DBDpp of SEQ ID NO: 42, phage-displayed (designed binder)
chain: MGSWYEFESRLDAIHERLHALGGSEAELAAFEKEIAAFESELQAYKGKGNPEVENLRGDAAFIRHFLQAYRHN
notes: as for B15
Take B20: the ELISA ratio in experiment [7] was 4.88.

B21: DBDpp of SEQ ID NO: 39, phage-displayed (designed binder)
chain: MGSWQEFDDRLNAIKARLQALGGSEAELAAFEKEIAAFESELQAYKGKGNPEVEDLRDDAAFIRRFLQAYRHN
notes: as for B15
For the molecule B21, the ELISA ratio in experiment [7] turned out to be 7.41.

B22: DBDpp of SEQ ID NO: 38, phage-displayed (designed binder)
chain: MGSWTEFQSRLDAIHSRLRALGGSEAELAAFEKEIAAFESELQAYKGKGNPEVELLRDDAAFIRHFLQAYRHN
notes: as for B15
With B22, the ELISA ratio in experiment [7] amounted to 8.68.

B23: DBDpp of SEQ ID NO: 43, phage-displayed (designed binder)
chain: MGSWYEFNHRLDAISKRLNALGGSEAELAAFEKEIAAFESELQAYKGKGNPEVEELRGDAAFIRHFLQAYRHN
notes: as for B15
Consider B23, for which the ELISA ratio in experiment [7] came to 2.98.

B24: DBDpp of SEQ ID NO: 28, phage-displayed (designed binder)
chain: MGSWVYFKEHLAWIKTELEALGGSEAELAHFEHSIADFEMSLQFYKGKGNPEVEALRKEAAAIRDELQAYRHN
notes: F1 library
Regarding B24, the ELISA ratio in experiment [1] worked out at 12.1.
